The target of the assay is KPNA2 (Homo sapiens, UniProt P52292). The experiment in a line: MST.

The Kd is a measure of binding affinity in units of concentration. The low end stands for higher affinity, the high end for lower affinity.

In turn, KLVFF [FF-T nucleopeptide] had an equilibrium dissociation constant (Kd) of roughly 31.1 µM.

As to KLVFFVKRKKKP [NLS-FF-T nucleopeptide], the equilibrium dissociation constant (Kd) was roughly 1.16 µM.
